Results from the supplement of paper PMC7877785.
± gives the uncertainty stated by the source.

Test: self-splicing fitness, log relative to wild type (ln ratio); higher = more splicing; Tetrahymena group I intron in knt gene, E. coli kanamycin selection, DiMSum; sequences stand for … in CUCUCU…GGAGGGAAAAGUUAUCAGGCAUGCACCUGGUAGCUAGUCUUUAAACCAAUAGAUUGCAUCGGUUUAAAAGGCAAGACCGUCAAAUUGCGGGAAAGGGGUCAACAGCCGUUCAGUACCAAGUCUCAGGGGAAACUUUGAGAUGGCCUUGCAAAGGGUAUGGUAAUAAGCUGACGGACAUGGUCCUAACCACGCAGCCAAGUCCUAAGUCAACAGAUCUUCUGUUGAUAUGGAUGCAGUUCACAGACUAAAUGUCGGUCGGGGAAGAUGUAUUCUUCUCAUAAGAUAUAGUCGGACCUCUCCUUAAUGGGAGCUAGCGGAUGAAGUGAUGCAACACUGGAGCCGCUGGGAACUAAUUUGUAUGCGAAAGUAUAUUGAUUAGUUUUGGAGUACUCGUGGUCG
Outline: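 Colonies from six replicate transformations of E. coli BL21(DE3) were pooled and amplicon-sequenced on an Illumina HiSeq 2500. The library placed an intron with all eight P1ex-region nucleotides randomised inside the knt kanamycin-resistance gene on pET-22b(+), and cells grew overnight at 37°C or 30°C on LB agar with or without 25 μg/mL kanamycin (plus 100 μg/mL carbenicillin, 50 μM IPTG, 0.2% rhamnose). Fitness is the DiMSum error-weighted combination of wild-type-normalised replicate fold changes, kanamycin versus none.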

Sequence	self-splicing fitness (ln) (30 °C)	self-splicing fitness (ln) (37 °C)
CGAUAGCAAUAUUACGAAUG	-0.898 ± 0.082	0.443 ± 0.11
CGAUAGCAAUAUUACGACAG	0.215 ± 0.1	0.719 ± 0.12
CGAUAGCAAUAUUACGACCC	-2.33 ± 0.44	–
CGAUAGCAAUAUUACGAGCU	-3.42 ± 0.4	-3.09 ± 0.35
CGAUAGCAAUAUUACGAGGG	-2.4 ± 0.15	-2.14 ± 0.26
CGAUAGCAAUAUUACGAGUU	-3.61 ± 0.24	-2.28 ± 0.23
CGAUAGCAAUAUUACGAUUG	-2.27 ± 0.12	-1.2 ± 0.12
CGAUAGCAAUAUUACGCAAA	-2.98 ± 0.29	-1.92 ± 0.15
CGAUAGCAAUAUUACGCAGU	-2.96 ± 0.19	-2.48 ± 0.19
CGAUAGCAAUAUUACGCCUC	-2.84 ± 0.24	-1.74 ± 0.26
CGAUAGCAAUAUUACGGAAG	-1.53 ± 0.083	-0.509 ± 0.11
CGAUAGCAAUAUUACGGAGC	-3.91 ± 0.4	-1.63 ± 0.3
CGAUAGCAAUAUUACGGCAU	-2.85 ± 0.21	-2.54 ± 0.26
CGAUAGCAAUAUUACGGGGU	-3.87 ± 0.19	-3.11 ± 0.32
CGAUAGCAAUAUUACGGUAG	-1.41 ± 0.11	-0.461 ± 0.11
CGAUAGCAAUAUUACGUAUG	-1.22 ± 0.071	-0.164 ± 0.096
CGCAAGCAAUAUUACGAAAC	-3.46 ± 0.37	-0.979 ± 0.12
CGCAAGCAAUAUUACGAACU	-0.966 ± 0.065	-0.369 ± 0.076
CGCAAGCAAUAUUACGAAGC	-2.55 ± 0.13	-3.1 ± 0.19
CGCAAGCAAUAUUACGACUC	-1.3 ± 0.12	-0.869 ± 0.19
CGCAAGCAAUAUUACGCAAU	-2.94 ± 0.21	-2.14 ± 0.26
CGCAAGCAAUAUUACGCAGC	–	-2.35 ± 0.27
CGCAAGCAAUAUUACGCCCA	-0.622 ± 0.17	-0.291 ± 0.16
CGCAAGCAAUAUUACGCGUG	-3.08 ± 0.12	-1.99 ± 0.13
CGCAAGCAAUAUUACGCUCU	-1.26 ± 0.093	-0.475 ± 0.094

Sequence	self-splicing fitness (ln) (30 °C)	self-splicing fitness (ln) (37 °C)
CGCAAGCAAUAUUACGGAUA	-3.52 ± 0.22	-2.23 ± 0.16
CGCAAGCAAUAUUACGGCCG	-1.1 ± 0.14	-0.644 ± 0.26
CGCAAGCAAUAUUACGGUGG	-0.599 ± 0.064	-0.2 ± 0.079
CGCAAGCAAUAUUACGUAAA	-3.18 ± 0.14	-2.12 ± 0.18
CGCAAGCAAUAUUACGUCCU	-1.2 ± 0.11	-0.366 ± 0.12
CGCAAGCAAUAUUACGUCGC	-2.24 ± 0.19	-3.19 ± 0.29
CGCAAGCAAUAUUACGUGGU	-3.75 ± 0.17	-3.22 ± 0.19
CGCCAGCAAUAUUACGAAAG	-0.802 ± 0.054	0.0641 ± 0.081
CGCCAGCAAUAUUACGAAUG	-0.783 ± 0.058	0.0658 ± 0.066
CGCCAGCAAUAUUACGACUA	-2.15 ± 0.2	-2.13 ± 0.2
CGCCAGCAAUAUUACGAGCC	-1.63 ± 0.14	-0.446 ± 0.18
CGCCAGCAAUAUUACGCACA	-1.68 ± 0.2	-1.65 ± 0.27
CGCCAGCAAUAUUACGCGAA	-2.14 ± 0.15	-1.38 ± 0.15
CGCCAGCAAUAUUACGCUUU	-2.9 ± 0.13	-1.13 ± 0.12
CGCCAGCAAUAUUACGGAAA	-1.48 ± 0.17	-1.93 ± 0.17
CGCCAGCAAUAUUACGGAGG	-3.32 ± 0.18	-0.355 ± 0.12
CGCCAGCAAUAUUACGGCCG	-2.9 ± 0.14	-0.755 ± 0.18
CGCCAGCAAUAUUACGGCGG	-2.23 ± 0.13	-1.83 ± 0.17
CGCCAGCAAUAUUACGGCGU	-3.63 ± 0.46	-2.17 ± 0.23
CGCCAGCAAUAUUACGGGAG	-1.92 ± 0.072	-1.38 ± 0.094
CGCCAGCAAUAUUACGUCCU	-4.8 ± 0.36	-2.45 ± 0.31
CGCCAGCAAUAUUACGUCGG	-3.04 ± 0.21	-1.91 ± 0.21
CGCCAGCAAUAUUACGUCUG	-2.97 ± 0.18	-0.917 ± 0.13
CGCCAGCAAUAUUACGUGAG	-1.37 ± 0.078	-1.25 ± 0.11
CGCCAGCAAUAUUACGUGCA	-0.897 ± 0.056	0.212 ± 0.085

Sequence	self-splicing fitness (ln) (30 °C)	self-splicing fitness (ln) (37 °C)
CGCGAGCAAUAUUACGAAAA	-1.55 ± 0.43	-3.06 ± 0.4
CGCGAGCAAUAUUACGAACC	–	-0.306 ± 0.33
CGCGAGCAAUAUUACGAAUA	-2.84 ± 0.35	-2.25 ± 0.38
CGCGAGCAAUAUUACGACCC	-0.487 ± 0.44	–
CGCGAGCAAUAUUACGCGAC	-2.96 ± 0.34	-0.404 ± 0.39
CGCGAGCAAUAUUACGCGCG	–	-2.07 ± 0.29
CGCGAGCAAUAUUACGCGGC	–	-2.4 ± 0.38
CGCGAGCAAUAUUACGCGUA	-2.59 ± 0.37	-2.52 ± 0.28
CGCGAGCAAUAUUACGCUAA	-2.95 ± 0.27	-2.55 ± 0.28
CGCGAGCAAUAUUACGCUUG	-3.06 ± 0.2	-1.46 ± 0.22
CGCGAGCAAUAUUACGGGAG	-3.66 ± 0.19	-2.91 ± 0.22
CGCGAGCAAUAUUACGGGGA	-1.94 ± 0.28	-2.41 ± 0.29
CGCGAGCAAUAUUACGGGGU	-4.28 ± 0.23	-2.95 ± 0.22
CGCGAGCAAUAUUACGGGUC	-3.27 ± 0.2	-2.38 ± 0.31
CGCGAGCAAUAUUACGGUCC	-3.29 ± 0.4	-2.12 ± 0.44
CGCGAGCAAUAUUACGGUUG	-1.73 ± 0.068	-1.76 ± 0.12
CGCGAGCAAUAUUACGUAAC	-2.76 ± 0.41	-1.76 ± 0.27
CGCGAGCAAUAUUACGUAGA	-3.09 ± 0.15	-2.93 ± 0.23
CGCGAGCAAUAUUACGUCCA	–	-1.96 ± 0.32
CGCGAGCAAUAUUACGUUCC	-3.49 ± 0.32	–
CGCUAGCAAUAUUACGACGA	-1.46 ± 0.15	0.422 ± 0.16
CGCUAGCAAUAUUACGACGU	-1.86 ± 0.1	-0.355 ± 0.12
CGCUAGCAAUAUUACGAGGA	-1.5 ± 0.18	-2.97 ± 0.29
CGCUAGCAAUAUUACGAUAG	-1.9 ± 0.065	-0.433 ± 0.085
CGCUAGCAAUAUUACGAUCG	-1.17 ± 0.12	-0.644 ± 0.14

Sequence	self-splicing fitness (ln) (30 °C)	self-splicing fitness (ln) (37 °C)
CGCUAGCAAUAUUACGAUUG	-1.18 ± 0.1	0.0898 ± 0.13
CGCUAGCAAUAUUACGCACC	-1.98 ± 0.18	-1 ± 0.23
CGCUAGCAAUAUUACGCACU	-1.27 ± 0.089	-0.65 ± 0.11
CGCUAGCAAUAUUACGCGUU	-1.99 ± 0.15	-2.51 ± 0.29
CGCUAGCAAUAUUACGCUCA	-2.4 ± 0.18	-0.522 ± 0.11
CGCUAGCAAUAUUACGCUGU	–	-2.3 ± 0.19
CGCUAGCAAUAUUACGGUAG	-2.52 ± 0.11	-2 ± 0.13
CGCUAGCAAUAUUACGUACG	-1.66 ± 0.13	-1.07 ± 0.13
CGCUAGCAAUAUUACGUAGA	-2.69 ± 0.14	-1.54 ± 0.19
CGCUAGCAAUAUUACGUGCC	-1.58 ± 0.11	-0.959 ± 0.15
CGCUAGCAAUAUUACGUGUA	-3.54 ± 0.27	-1.53 ± 0.13
CGCUAGCAAUAUUACGUUGG	-4 ± 0.23	-2.24 ± 0.19
CGCUAGCAAUAUUACGUUUC	-2.78 ± 0.17	-2.23 ± 0.22
CGGAAGCAAUAUUACGACAA	-2.42 ± 0.31	-2.2 ± 0.33
CGGAAGCAAUAUUACGAUAC	-2.26 ± 0.18	-2.22 ± 0.21
CGGAAGCAAUAUUACGAUAG	-1.11 ± 0.082	0.166 ± 0.1
CGGAAGCAAUAUUACGCAAU	-3 ± 0.26	-2.69 ± 0.26
CGGAAGCAAUAUUACGCCCG	-2.86 ± 0.36	–
CGGAAGCAAUAUUACGCCUA	-1.72 ± 0.21	-0.963 ± 0.18
CGGAAGCAAUAUUACGCCUG	-1 ± 0.098	-0.724 ± 0.12
CGGAAGCAAUAUUACGGCGU	-1.96 ± 0.16	-1.04 ± 0.22
CGGAAGCAAUAUUACGGGAU	-3.67 ± 0.42	-2.48 ± 0.25
CGGAAGCAAUAUUACGGGGU	-2.39 ± 0.27	-3.41 ± 0.43
